The results in this text go back to patent publication US20220267436A1.

The target in assay [1] is human CD47 (human) (UniProt Q08722). Nature of the assay: flow cytometry, CHO-K1 cells expressing human CD47; FIG. 3. Background: In flow cytometry, cells or beads pass a laser one at a time.
The target is the same in assay [2]. Nature of the assay: flow cytometry, CHO-K1 cells expressing human CD47; FIG. 4.
Assay [3] deals with human LAG-3 (human) (UniProt P18627). Nature of the assay: flow cytometry, CHO-K1 cells expressing human LAG-3; FIG. 1.
Sequence of human LAG-3 (human) (P18627 23-525): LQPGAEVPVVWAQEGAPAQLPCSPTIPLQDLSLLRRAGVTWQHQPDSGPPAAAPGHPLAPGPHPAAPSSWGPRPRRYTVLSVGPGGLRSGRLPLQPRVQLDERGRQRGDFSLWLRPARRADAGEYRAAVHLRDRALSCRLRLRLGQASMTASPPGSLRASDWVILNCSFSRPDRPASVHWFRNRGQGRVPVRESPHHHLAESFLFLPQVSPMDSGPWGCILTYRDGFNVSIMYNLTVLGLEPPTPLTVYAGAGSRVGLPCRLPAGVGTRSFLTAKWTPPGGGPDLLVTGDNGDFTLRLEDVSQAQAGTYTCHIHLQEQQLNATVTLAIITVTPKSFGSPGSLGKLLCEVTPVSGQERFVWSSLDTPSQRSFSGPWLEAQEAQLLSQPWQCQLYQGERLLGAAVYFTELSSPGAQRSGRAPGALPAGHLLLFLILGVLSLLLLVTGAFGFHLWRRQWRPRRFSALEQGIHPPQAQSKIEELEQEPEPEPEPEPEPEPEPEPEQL
Assay [4] has the same target. Nature of the assay: flow cytometry, CHO-K1 cells expressing human LAG-3; FIG. 2.

Sequence of human CD47 (human) (Q08722 19-323): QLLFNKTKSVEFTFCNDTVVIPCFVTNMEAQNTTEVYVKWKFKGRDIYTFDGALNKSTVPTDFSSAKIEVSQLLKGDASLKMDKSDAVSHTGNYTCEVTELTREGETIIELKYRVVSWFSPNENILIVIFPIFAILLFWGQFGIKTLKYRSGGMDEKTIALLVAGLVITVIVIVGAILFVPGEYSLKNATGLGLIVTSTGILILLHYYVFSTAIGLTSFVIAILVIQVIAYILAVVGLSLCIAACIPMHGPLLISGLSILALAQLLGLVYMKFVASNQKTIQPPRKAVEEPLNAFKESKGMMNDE

On to Human IgG, for which the EC50 was found to be 14.4 nM with human CD47 (human) [1], 14.4 nM with human CD47 (human) [2], 2.46 nM in the assay with human LAG-3 (human) [3] and 2.46 nM with human LAG-3 (human) [4].

Usually EC50 stands for the concentration giving half of the maximal effect. Read a high EC50 as a need for much substance.
